Experiments:
[1] = target: pepIII peptide (PepIII portion of EGFRvIII), 13-mer …; assay: eluted supernatant of unblocked sample rebound to pepIII-conjugated beads, flow cytometry
[2] = target: pepIII peptide (PepIII portion of EGFRvIII), 13-mer …; assay: eluted supernatant mixed with pepIII-conjugated beads and free pepIII competitor in the second round, flow cytometry
[3] = target: pepIII peptide (PepIII portion of EGFRvIII), 13-mer …; assay: eluted supernatant of sample blocked with free pepIII in the first round of binding, rebound to pepIII-conjugated beads, flow cytometry

L8A4 anti-pepIII monoclonal antibody
antibody level (FIG. 2, fluorescence) [1]: 31.2
antibody level (FIG. 2, fluorescence) [2]: 2.57
antibody level (FIG. 2, fluorescence) [3]: 2.21

— patent publication US20120115739A1
